T1: human Fc tagged human Lag3 extra cellular domain (human, UniProt P18627 29-450, biotinylated in the epitope binning, the SA CAP SPR and the FACS competition assay)
T1 construct: In-house fusion; also called huLag3-Fc; biotinylated, huFc-tagged huLag3; not shown: human Fc tag
T1 sequence: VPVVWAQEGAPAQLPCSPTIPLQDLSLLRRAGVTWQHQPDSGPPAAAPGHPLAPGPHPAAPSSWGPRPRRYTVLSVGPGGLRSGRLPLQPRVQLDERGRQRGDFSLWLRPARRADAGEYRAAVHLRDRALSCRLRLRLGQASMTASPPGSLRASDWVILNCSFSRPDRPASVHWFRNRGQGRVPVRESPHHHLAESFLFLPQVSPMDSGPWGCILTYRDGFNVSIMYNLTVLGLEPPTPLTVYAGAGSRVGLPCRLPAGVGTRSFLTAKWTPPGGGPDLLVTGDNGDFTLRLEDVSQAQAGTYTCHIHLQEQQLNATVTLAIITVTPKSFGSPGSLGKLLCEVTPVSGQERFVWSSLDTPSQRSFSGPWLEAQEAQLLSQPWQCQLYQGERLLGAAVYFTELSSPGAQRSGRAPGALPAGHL

B1: PD1-0069 (antibody, V domains shown)
VH: QVQLQQSGPELVRPGVSVKISCKGSGYTFTDYAMHWVKQSHARTLEWIGVISTYSGDTNYNQKFKDKATMTVDKSSSTAYLELARMTSEDSAIYYCARLGITTGFAYWGQGTLVTVSA
VL: DIVLTQSPASLAVSLGQRATISCRASKGVSTSSYSFMHWYQQKPRQPPKLLIKYASYLESGVPARFSGSGSGTDFTLNIHPVEEEDAATYYCHHSREFPWTFGGGTKLEIK
notes: Mouse hybridoma antibody
B2: PD1-0073 (antibody, V domains shown)
VH: EVKLVESGGGLVKPGGSLKLSCAASGFTFSNYGMSWIRQTPEKGLEWVATISGGGRDTYYPDSVKGRFTISRDNVKNNLYLQMSSLRSEDTAFYYCASYYYGIDYWGQGTSVTVSS
VL: DIVMTQPHKFMSTSVGDRVRITCKASQDVTTAVAWYQQKPGQSPKLLIYWASTRHTGVPDRFTGSGSGTEFTLTISSVQAEDLALYYCQQHYSIPWTFGGGTKLEIK
B3: MDX-25F7 (25F7) Fab fragment (Fab, V domains shown)
VH: QVQLQQWGAGLLKPSETLSLTCAVYGGSFSDYYWNWIRQPPGKGLEWIGEINHNGNTNSNPSLKSRVTLSLDTSKNQFSLKLRSVTAADTAVYYCAFGYSDYEYNWFDPWGQGTLVTVSS
VL: EIVLTQSPATLSLSPGERATLSCRASQSISSYLAWYQQKPGQAPRLLIYDASNRATGIPARFSGSGSGTDFTLTISSLEPEDFAVYYCQQRSNWPLTFGQGTNLEIK
B4: PD1-0078 (antibody, V domains shown)
VH: QVQLQQPGAELVKPGASVKMSCKASGYTFTSTWMHWVKQRPGQGLEWIGAIDPSDSYTTYNQKFKGKATLTVDTSSTTAYMQLSSLTSEDSAVYYCTRSPFDYWGQGTTLTVSS
VL: DIVMTQSHKFMSTSVGDRVSITCKASQDVSTAVAWYQQKPGQSPKLLIYSASYRYTGVPDRFTGSGSGTDFTFAISSVQAEDLAVYYCQQHYSHPFTFGSGTKLEIK
B5: PD1-0098 (antibody, V domains shown)
VH: DVQLQESGPGLVKPSQSLSLTCTVTGYSITSDYAWNWIRQFPGDKLEWLGYITYSGFTNYNPSLKSRISISRDTSKNQFFLQLNSVATEDTATYYCARWHGSAPWYFDYWGRGTTLTVSS
VL: DVLMTQTPLSLPVSLGDQASISCRSSQNIVHSDGNTYLEWYLQKPGQSPNLLIYKVSRRFSGVPDRFSGSGSGTDFTLKISRVEAEDLGVYYCFQGSHFPLTFGAGTKLELK
notes: Mouse hybridoma antibody
B6: PD1-0102 (antibody, V domains shown)
VH: DVQLQESGPDLVKPSQSLSLTCTVTGYSITSGYSWHWIRQFPGNKLEWMGFIHSSGDTNYNPSLKSRISFTRDTSKNQFFLQLSSLTDEDTATYYCATYRNWYFDVWGAGTTVTVSS
VL: DIVMTQSPSSLTVTAGEKVTMRCKSSQSLLNSGTQKNYLTWYQQKPGQPPKLLIYWASTRESGVPNRFTGSGSGTDFTLTISSVQAEDLSVYYCQSDYTFPLTFGGGTKLELK
B7: PD1-0103 (antibody, V domains shown)
VH: EVILVESGGGLVKPGGSLKLSCAASGFSFSSYTMSWVRQTPEKRLDWVATISGGGRDIYYPDSVKGRFTISRDNAKNTLYLEMSSLMSEDTALYYCVLLTGRVYFALDSWGQGTSVTVSS
VL: KIVLTQSPASLPVSLGQRATISCRASESVDTSDNSFIHWYQQRPGQSPKLLIYRSSTLESGVPARFSGSGSRTDFTLTIDPVEADDVATYYCQQNYDVPWTFGGGTKLEIK
notes: Mouse hybridoma antibody; also called murine anti-PD1 antibody PD1-0103
B8: PD1-0050 (antibody, V domains shown)
VH: DVQLQESGPGLVKPSQSLSLTCTVTGYSITSDYAWNWIRQFPGNKLEWMGYITYTGRTSYNPSLKSRISITRDTSKNQFFLQLNSVTTEDTATYYCAREMDYYGSTLDYWGQGTTLTVSS
VL: KIVLTQSPASLAVSLRQRATISCRASESVDRYGNSFIHWYQQKPGQPPKVLIYRASNLESGFPARFSGSGSRTDFTLTIDPVEADDAATYYCQQNNEDPYTFGSGTKLEIK
B9: aLAG3(0411) Fab fragment (Fab, V domains shown)
VH: EVHLLESGGGLVQPGGSLRLSCAASGFIVDDYTMNWVRQAPGKGLEWVSVISWDGGATYYADSVKGRFTISRDDFKNTLYLQMNSLRAEDTAVYYCAKGLTDDTLYGSDYWGQGTLVTVSS
VL: DIQMTQSPSSLSASVGDRVTITCRASQSIVSYLNWYQQKPGKAPKLLIYASSSLQSGVPSRFSGSGSGTDFTLTISSLQPEDFATYYCQQTYSTPLTFGGGTKVEIK
notes: also called aLAG3 (411)
B10: aLAG3(0417) Fab fragment (Fab, V domains shown)
VH: EVQLVESGGGLVQPGGSLRLACAASGFTFSDYAMSWVRQAPGKGLEWVSGIDNSGYYTYYTDSVKGRFTISRDDVKNTLYLQMNSLRAEDTAVYLCTKTHSGLIVNDAFDIWGQGTMVTVSS
VL: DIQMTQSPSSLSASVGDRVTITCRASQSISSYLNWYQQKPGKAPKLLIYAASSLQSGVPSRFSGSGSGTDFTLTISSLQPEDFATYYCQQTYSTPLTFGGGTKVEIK
notes: also called aLAG3 (417)
B11: aLAG3(0403) Fab fragment (Fab, V domains shown)
VH: EVQLLESGGGLVQPGGSLRLSCAASGFTFDDYTMHWVRQAPGKGLEWVSLVSWDGGGTYYTNSVKGRFTISRDNSKNTLYLQMNSLRAEDTAVYFCAKAITDTSLYGYDYWGQGILVTVSS
VL: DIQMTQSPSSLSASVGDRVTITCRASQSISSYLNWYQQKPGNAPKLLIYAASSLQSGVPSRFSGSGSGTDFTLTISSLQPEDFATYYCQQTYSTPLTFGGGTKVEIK
B12: MDX-26H10 (26H10) Fab fragment (Fab, V domains shown)
VH: QVQLVESGGGVVQPGRSLRLSCAASGFTFSSYGMHWVRQAPGKGLEWVAVIWYDGSNKYYADSVKGRFTISRDNSKNTLYLQMNSLRAEDTAVYYCAREWAVASWDYGMDVWGQGTTVTVSS
VL: not shown

Key:
[1] = biological target: T2, biotinylated PD1-ECD-AviHis (human, UniProt Q15116 25-170, biotinylated); assay: PD-L1 replacing ELISA on coated PD1-ECD-AviHis; competitor PD-L1 Fc chimera
T2 construct: also called huPD1; hu PD1; not shown: Avi-His tag
T2 sequence (Q15116 25-170): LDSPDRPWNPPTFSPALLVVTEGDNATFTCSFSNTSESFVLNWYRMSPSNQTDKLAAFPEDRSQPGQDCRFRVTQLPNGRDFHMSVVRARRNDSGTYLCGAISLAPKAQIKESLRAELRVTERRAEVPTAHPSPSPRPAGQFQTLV
Method: (§1) After washing (3×90 μl/well with PBST-buffer) 25 μl/well goat-anti-human H+L-POD (JIR, 109-036-088) was added in 1:1000 dilution and incubated at RT for 1 h on shaker. After washing (3×90 μl/well with PBST-buffer) 25 μl/well TMB substrate (Roche, 11835033001) was added and incubated until OD 2-3. Measurement took place at 370/492 nm.

[2] = biological target: T3, biotinylated cynoPD1-ECD-Biotin (cynomolgus, UniProt B0LAJ3 25-170, biotinylated; the site and any Avi or His tag are not stated in the passages shown); assay: ELISA on coated cynoPD1-ECD-Biotin
T3 construct: also called cyPD1
T3 sequence (B0LAJ3 entry or part of it limits assumed): as the sequence (Q15116 25-170) above, with D2E, P10A, V19L, T35A, Q75R, T144A counted along it
Method: as §1, with “JIR109-036-088)” for “109-036-088)”

[3] = biological target: T2, biotinylated PD1-ECD-AviHis; assay: PD-L2 replacing ELISA on coated PD1-ECD-AviHis; competitor PD-L2 Fc chimera
Method: as §1, with “1:2000” for “1:1000”, “TMB (tetramethylbenzidine)” for “TMB”, “#11835033001)” for “11835033001)”

[4] = biological target: T2, biotinylated PD1-ECD-AviHis; assay: ELISA on coated biotinylated PD1-ECD-AviHis
Method: as §1, with “JIR109-036-088)/Sheep-anti-mouse-POD (GE Healthcare; NA9310)” for “109-036-088)”, “1:2000/1:1000” for “1:1000”, “(Roche Catalogue No.” for “(Roche,”

[5] = biological target: T1, human Fc tagged human Lag3 extra …; assay: SPR (Biacore T200), huLag3-Fc captured, antibody Fab fragment as analyte, 25 °C
Method: Therefore two flow cells of a C1 biosensor chip were prepared in a Biacore T200 by immobilizing neutravidin, diluted to 25 μg/ml in acetate buffer pH 4.5, onto it using the ‘immobilization wizard’. […] Then, CaptureSelect™ Biotin Anti-IgG-Fc (Human) Conjugate was bound to the neutravidin, using a 20 μg/ml dilution in running buffer (HBS-EP+, GE Healthcare).
The method itself consisted of four commands per cycle. […] Second command: sample injection for 120s followed by a 1200s long dissociation at a flow speed of 30 μl/min. Third and fourth command: regeneration by injecting Glycine-HCl pH 1.5 for 30 seconds.

Row | Binder | IC50 [1] | EC50 [2] | IC50 [3] | EC50 [4] | koff [5]
1 | B1 | 0.225 µg/mL | 0.0227 µg/mL | 0.089 µg/mL | 0.0457 µg/mL | 
2 | B2 | 0.124 µg/mL | 0.0083 µg/mL | 0.065 µg/mL | 0.0151 µg/mL | 
3 | B3 |  |  |  |  | 0.000386 s⁻¹
4 | B4 |  | 0.0224 µg/mL | 0.086 µg/mL | 0.0263 µg/mL | 
5 | B5 | 0.174 µg/mL | 0.0546 µg/mL | 0.045 µg/mL | 0.0508 µg/mL | 
6 | B6 | > 35.5 µg/mL | 0.0527 µg/mL | 0.14 µg/mL | 0.0342 µg/mL | 
7 | B7 | 0.182 µg/mL | 0.0369 µg/mL | 0.051 µg/mL | 0.0337 µg/mL | 
8 | B8 | 0.128 µg/mL | 0.0098 µg/mL | 0.034 µg/mL | 0.0179 µg/mL | 
9 | B9 |  |  |  |  | 3.87e-05 s⁻¹
10 | B10 |  |  |  |  | 9.48e-05 s⁻¹
11 | B11 |  |  |  |  | 5e-06 s⁻¹
12 | B12 |  |  |  |  | 0.000399 s⁻¹
